In article doi:10.1101/2022.05.10.491262:

Target: T1, human alpha-2-macroglobulin, native state (nA2M) (human), P01023
T1 chain: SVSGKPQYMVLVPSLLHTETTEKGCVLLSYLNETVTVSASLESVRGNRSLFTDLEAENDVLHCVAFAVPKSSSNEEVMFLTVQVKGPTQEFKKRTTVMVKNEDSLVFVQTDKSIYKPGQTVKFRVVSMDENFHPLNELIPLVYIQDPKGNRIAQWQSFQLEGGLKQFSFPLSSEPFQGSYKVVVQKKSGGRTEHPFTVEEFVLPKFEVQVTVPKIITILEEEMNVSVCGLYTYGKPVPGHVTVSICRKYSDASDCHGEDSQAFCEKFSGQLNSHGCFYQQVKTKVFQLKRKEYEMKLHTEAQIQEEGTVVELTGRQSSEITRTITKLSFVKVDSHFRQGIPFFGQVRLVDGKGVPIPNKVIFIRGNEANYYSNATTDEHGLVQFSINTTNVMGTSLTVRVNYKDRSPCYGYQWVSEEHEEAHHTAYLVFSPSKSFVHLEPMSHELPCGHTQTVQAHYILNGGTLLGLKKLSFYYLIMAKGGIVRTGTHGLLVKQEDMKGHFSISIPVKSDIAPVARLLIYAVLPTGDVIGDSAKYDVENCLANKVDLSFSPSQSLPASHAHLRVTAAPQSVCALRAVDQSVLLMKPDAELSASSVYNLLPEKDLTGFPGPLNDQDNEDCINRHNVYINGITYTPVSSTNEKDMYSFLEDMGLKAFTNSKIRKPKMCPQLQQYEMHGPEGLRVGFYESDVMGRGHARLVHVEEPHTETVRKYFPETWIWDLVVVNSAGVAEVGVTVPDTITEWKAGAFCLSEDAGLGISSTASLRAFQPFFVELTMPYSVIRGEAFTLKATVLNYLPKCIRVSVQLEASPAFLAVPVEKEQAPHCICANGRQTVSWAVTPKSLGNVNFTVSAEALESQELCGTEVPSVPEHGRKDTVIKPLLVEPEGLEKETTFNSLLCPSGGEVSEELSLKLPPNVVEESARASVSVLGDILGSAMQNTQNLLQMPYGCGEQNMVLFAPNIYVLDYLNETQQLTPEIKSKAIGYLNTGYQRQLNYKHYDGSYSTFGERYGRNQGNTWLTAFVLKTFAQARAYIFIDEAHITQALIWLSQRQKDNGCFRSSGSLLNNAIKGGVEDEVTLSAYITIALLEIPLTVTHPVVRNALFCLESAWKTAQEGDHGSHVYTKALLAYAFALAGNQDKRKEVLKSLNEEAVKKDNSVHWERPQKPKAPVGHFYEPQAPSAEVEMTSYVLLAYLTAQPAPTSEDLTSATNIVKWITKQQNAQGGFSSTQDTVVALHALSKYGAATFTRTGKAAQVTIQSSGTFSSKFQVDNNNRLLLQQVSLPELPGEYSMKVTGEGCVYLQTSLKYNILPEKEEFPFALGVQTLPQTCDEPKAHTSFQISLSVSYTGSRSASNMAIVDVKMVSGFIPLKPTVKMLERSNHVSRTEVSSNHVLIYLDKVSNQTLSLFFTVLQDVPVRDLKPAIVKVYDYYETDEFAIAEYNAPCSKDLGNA
Experiment: ITC

stoichiometry N (trypsin per hA2M): 1.2
B1: human trypsin, P35030 81-304 (enzyme)
chain: IVGGYTCEENSLPYQVSLNSGSHFCGGSLISEQWVVSAAHCYKTRIQVRLGEHNIKVLEGNEQFINAAKIIRHPKYNRDTLDNDIMLIKLSSPAVINARVSTISLPTTPPAAGTECLISGWGNTLSFGADYPDELKCLDAPVLTQAECKASYPGKITNSMFCVGFLEGGKDSCQRDSGGPVVCNGQLQGVVSWGHGCAWKNRPGVYTKVYNYVDWIKDTIAANS
modifications: not checked
